# Molecular target: Jak2 (UniProt O60674)
# Experiment: phosphorylation enrichment, bacterial display (enrichment ratio); higher = better substrate or ligand; peptides without Tyr show the background
# 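Note: 11-residue human phosphosite peptides and single-mutation variants displayed on the E. coli surface, counted by deep sequencing, each peptide's frequency after selection divided by its frequency in the unselected input library; frequency after pTyr selection over input frequency; kinase dosed for 20-30% of maximal phosphorylation in three min.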
# Jak2, sequence (O60674 whole entry, looked up): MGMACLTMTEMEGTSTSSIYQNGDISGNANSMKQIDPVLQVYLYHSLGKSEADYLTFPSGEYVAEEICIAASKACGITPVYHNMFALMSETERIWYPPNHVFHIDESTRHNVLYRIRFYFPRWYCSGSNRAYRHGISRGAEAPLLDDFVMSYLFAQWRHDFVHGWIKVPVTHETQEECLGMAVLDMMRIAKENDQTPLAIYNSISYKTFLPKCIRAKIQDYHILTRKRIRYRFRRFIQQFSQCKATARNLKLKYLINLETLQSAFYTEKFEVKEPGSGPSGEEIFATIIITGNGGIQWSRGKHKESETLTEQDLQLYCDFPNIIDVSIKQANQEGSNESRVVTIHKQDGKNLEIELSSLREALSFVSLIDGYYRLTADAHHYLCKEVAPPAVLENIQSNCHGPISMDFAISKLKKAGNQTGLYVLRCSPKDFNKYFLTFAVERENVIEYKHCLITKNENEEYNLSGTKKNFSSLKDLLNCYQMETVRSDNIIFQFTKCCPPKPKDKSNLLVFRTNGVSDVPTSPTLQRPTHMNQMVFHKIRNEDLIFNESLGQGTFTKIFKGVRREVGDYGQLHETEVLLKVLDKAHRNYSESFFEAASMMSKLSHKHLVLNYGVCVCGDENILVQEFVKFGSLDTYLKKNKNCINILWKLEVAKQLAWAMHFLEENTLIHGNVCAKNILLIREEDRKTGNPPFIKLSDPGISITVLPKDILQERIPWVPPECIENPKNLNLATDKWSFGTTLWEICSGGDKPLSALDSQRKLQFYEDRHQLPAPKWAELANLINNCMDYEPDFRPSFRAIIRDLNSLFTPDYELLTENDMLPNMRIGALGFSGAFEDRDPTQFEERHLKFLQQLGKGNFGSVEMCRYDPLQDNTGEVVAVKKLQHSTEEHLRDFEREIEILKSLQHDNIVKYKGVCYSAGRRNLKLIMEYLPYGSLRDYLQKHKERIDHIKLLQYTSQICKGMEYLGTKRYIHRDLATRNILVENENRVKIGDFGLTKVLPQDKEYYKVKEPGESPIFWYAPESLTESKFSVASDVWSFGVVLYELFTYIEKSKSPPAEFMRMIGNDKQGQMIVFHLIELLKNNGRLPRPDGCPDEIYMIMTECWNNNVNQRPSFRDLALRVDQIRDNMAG
row,Sequence,phosphorylation enrichment
1,CTTIHYNSMCN [TP53_Y234_Y236S],0.603
2,FEHVGYTTLNR [CHN1_Y148_YF],0.527
3,VGTKRYRAPEV [ACVRL1_Y375_M376R],0.351
4,PVQAASQKVVA [HBB_Y131_Y131S],0.398
5,LEITWYPFDME [RIPOR2_Y316_V320M],2.05
6,SPFEVYVDKSQ [FLNA_Y373],0.99
7,FLRTGYSIPFG [TGM1_Y370_V372I_YF],0.863
8,NTGLDYIKFTW [HRH1_Y386],1.92
9,GKFFQYDTWNQ [IGF2_Y116_K120N],0.933
10,FGISGYLVDSV [MAP2K3_Y214],0.97
11,YEDTLYTVLHR [UNC13D_Y61_A59T],1.39
12,GRRNTCFASIA [ACADM_Y352_Y352C_YF],0.711
13,HLLRIYYDITD [MMP27_Y307_W304L],1.91
14,HLAQRYLIWEC [SCN5A_Y694_R689H],1.02
15,EYHRLYEEYTR [PIK3R1_Y467_D464H],0.978
16,REGKIYEFNQV [ZNF665_Y162_H157R_YF],0.432
17,AQADIYKADFQ [IKBKG_Y308],0.672
18,QRPGLYDRPGA [HNRNPH2_Y210_P209L],0.829
19,DVMDLYKTLRG [NR3C1_Y30_F29L],0.517
20,CVGGFYGGCNE [CTSC_Y352_Y347C],0.636
21,RGDSAYHSQRH [ERBB3_Y1132],0.288
22,KSIQLYDTPFE [SHB_Y297_G293S_YF],0.9
23,PPTYRYERGSR [INPPL1_Y663],0.286
24,INASGYRIGPA [ACSM1_Y477],0.401
25,SVTCTDSPALN [TP53_Y126_Y126D],0.958
26,SNVEQYQAMVT [TPR_Y965],0.846
27,ETLLFYGFRRS [POR_Y564_C566Y_YF],0.745
28,QLAPQYTYTQG [FLNA_Y1761_A1764T],0.611
29,HHIDFYKETTN [FGFR1_Y654_K656E_YF],0.938

# Molecular target: Fes (UniProt P07332)
# Experiment: as above
# Fes, sequence (P07332 whole entry, looked up): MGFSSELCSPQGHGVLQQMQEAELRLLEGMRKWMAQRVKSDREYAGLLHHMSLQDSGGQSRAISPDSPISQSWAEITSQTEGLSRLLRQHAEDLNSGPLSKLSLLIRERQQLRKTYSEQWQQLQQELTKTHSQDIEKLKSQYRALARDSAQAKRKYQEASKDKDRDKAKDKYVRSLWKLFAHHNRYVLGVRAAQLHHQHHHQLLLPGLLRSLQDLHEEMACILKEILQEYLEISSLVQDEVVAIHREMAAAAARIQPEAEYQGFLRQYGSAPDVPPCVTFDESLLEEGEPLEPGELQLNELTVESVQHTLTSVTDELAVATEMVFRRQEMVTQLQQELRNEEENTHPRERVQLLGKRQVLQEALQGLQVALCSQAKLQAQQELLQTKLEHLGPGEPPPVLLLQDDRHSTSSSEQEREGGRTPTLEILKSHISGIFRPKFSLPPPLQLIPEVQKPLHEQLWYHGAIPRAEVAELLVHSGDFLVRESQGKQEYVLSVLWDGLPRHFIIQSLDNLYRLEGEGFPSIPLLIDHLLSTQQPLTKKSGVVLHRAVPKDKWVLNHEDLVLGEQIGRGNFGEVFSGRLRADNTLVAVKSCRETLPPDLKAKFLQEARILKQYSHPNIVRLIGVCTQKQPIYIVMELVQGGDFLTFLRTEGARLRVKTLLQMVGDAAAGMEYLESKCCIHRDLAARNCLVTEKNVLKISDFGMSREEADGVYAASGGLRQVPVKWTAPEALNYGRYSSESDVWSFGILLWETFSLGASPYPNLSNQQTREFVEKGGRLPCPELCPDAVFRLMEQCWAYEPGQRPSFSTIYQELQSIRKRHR
row,Sequence,phosphorylation enrichment
1,CTTIHYNSMCN [TP53_Y234_Y236S],0.905
2,FEHVGYTTLNR [CHN1_Y148_YF],0.805
3,VGTKRYRAPEV [ACVRL1_Y375_M376R],0.565
4,PVQAASQKVVA [HBB_Y131_Y131S],1.36
5,LEITWYPFDME [RIPOR2_Y316_V320M],2.31
6,SPFEVYVDKSQ [FLNA_Y373],1.27
7,FLRTGYSIPFG [TGM1_Y370_V372I_YF],0.934
8,NTGLDYIKFTW [HRH1_Y386],1.31
9,GKFFQYDTWNQ [IGF2_Y116_K120N],1.07
10,FGISGYLVDSV [MAP2K3_Y214],1.2
11,YEDTLYTVLHR [UNC13D_Y61_A59T],1.41
12,GRRNTCFASIA [ACADM_Y352_Y352C_YF],0.691
13,HLLRIYYDITD [MMP27_Y307_W304L],2.15
14,HLAQRYLIWEC [SCN5A_Y694_R689H],1.65
15,EYHRLYEEYTR [PIK3R1_Y467_D464H],0.898
16,REGKIYEFNQV [ZNF665_Y162_H157R_YF],0.758
17,AQADIYKADFQ [IKBKG_Y308],0.848
18,QRPGLYDRPGA [HNRNPH2_Y210_P209L],0.943
19,DVMDLYKTLRG [NR3C1_Y30_F29L],0.776
20,CVGGFYGGCNE [CTSC_Y352_Y347C],0.854
21,RGDSAYHSQRH [ERBB3_Y1132],0.731
22,KSIQLYDTPFE [SHB_Y297_G293S_YF],1
23,PPTYRYERGSR [INPPL1_Y663],0.616
24,INASGYRIGPA [ACSM1_Y477],0.502
25,SVTCTDSPALN [TP53_Y126_Y126D],1.13
26,SNVEQYQAMVT [TPR_Y965],0.692
27,ETLLFYGFRRS [POR_Y564_C566Y_YF],1.01
28,QLAPQYTYTQG [FLNA_Y1761_A1764T],0.766
29,HHIDFYKETTN [FGFR1_Y654_K656E_YF],2.36

# Molecular target: Fyn (UniProt P06241)
# Experiment: as above
# Fyn, sequence (P06241 whole entry, looked up): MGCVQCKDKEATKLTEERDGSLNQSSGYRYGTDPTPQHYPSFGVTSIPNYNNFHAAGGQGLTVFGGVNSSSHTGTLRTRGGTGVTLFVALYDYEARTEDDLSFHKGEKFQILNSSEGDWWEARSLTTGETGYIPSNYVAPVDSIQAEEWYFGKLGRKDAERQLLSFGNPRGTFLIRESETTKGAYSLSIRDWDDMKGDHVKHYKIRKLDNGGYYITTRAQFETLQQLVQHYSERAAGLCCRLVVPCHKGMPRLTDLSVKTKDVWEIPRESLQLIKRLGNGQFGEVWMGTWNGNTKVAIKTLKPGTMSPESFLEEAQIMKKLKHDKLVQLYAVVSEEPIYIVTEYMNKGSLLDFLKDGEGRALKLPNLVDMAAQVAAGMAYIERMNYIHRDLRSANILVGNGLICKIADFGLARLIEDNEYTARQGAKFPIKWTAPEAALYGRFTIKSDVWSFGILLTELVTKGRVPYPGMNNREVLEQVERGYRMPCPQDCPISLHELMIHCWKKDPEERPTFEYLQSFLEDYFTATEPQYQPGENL
row,Sequence,phosphorylation enrichment
1,CTTIHYNSMCN [TP53_Y234_Y236S],0.464
2,FEHVGYTTLNR [CHN1_Y148_YF],0.448
3,VGTKRYRAPEV [ACVRL1_Y375_M376R],0.379
4,PVQAASQKVVA [HBB_Y131_Y131S],0.445
5,LEITWYPFDME [RIPOR2_Y316_V320M],0.594
6,SPFEVYVDKSQ [FLNA_Y373],0.477
7,FLRTGYSIPFG [TGM1_Y370_V372I_YF],0.473
8,NTGLDYIKFTW [HRH1_Y386],0.39
9,GKFFQYDTWNQ [IGF2_Y116_K120N],0.51
10,FGISGYLVDSV [MAP2K3_Y214],0.467
11,YEDTLYTVLHR [UNC13D_Y61_A59T],7.58
12,GRRNTCFASIA [ACADM_Y352_Y352C_YF],0.401
13,HLLRIYYDITD [MMP27_Y307_W304L],1.07
14,HLAQRYLIWEC [SCN5A_Y694_R689H],0.953
15,EYHRLYEEYTR [PIK3R1_Y467_D464H],5.5
16,REGKIYEFNQV [ZNF665_Y162_H157R_YF],4.78
17,AQADIYKADFQ [IKBKG_Y308],0.734
18,QRPGLYDRPGA [HNRNPH2_Y210_P209L],0.741
19,DVMDLYKTLRG [NR3C1_Y30_F29L],0.437
20,CVGGFYGGCNE [CTSC_Y352_Y347C],0.678
21,RGDSAYHSQRH [ERBB3_Y1132],0.455
22,KSIQLYDTPFE [SHB_Y297_G293S_YF],1.01
23,PPTYRYERGSR [INPPL1_Y663],0.449
24,INASGYRIGPA [ACSM1_Y477],0.328
25,SVTCTDSPALN [TP53_Y126_Y126D],0.447
26,SNVEQYQAMVT [TPR_Y965],0.506
27,ETLLFYGFRRS [POR_Y564_C566Y_YF],0.431
28,QLAPQYTYTQG [FLNA_Y1761_A1764T],0.422
29,HHIDFYKETTN [FGFR1_Y654_K656E_YF],1.27

# Molecular target: EPHB2 (UniProt P29323)
# Experiment: as above
# EPHB2, sequence (P29323 whole entry, looked up): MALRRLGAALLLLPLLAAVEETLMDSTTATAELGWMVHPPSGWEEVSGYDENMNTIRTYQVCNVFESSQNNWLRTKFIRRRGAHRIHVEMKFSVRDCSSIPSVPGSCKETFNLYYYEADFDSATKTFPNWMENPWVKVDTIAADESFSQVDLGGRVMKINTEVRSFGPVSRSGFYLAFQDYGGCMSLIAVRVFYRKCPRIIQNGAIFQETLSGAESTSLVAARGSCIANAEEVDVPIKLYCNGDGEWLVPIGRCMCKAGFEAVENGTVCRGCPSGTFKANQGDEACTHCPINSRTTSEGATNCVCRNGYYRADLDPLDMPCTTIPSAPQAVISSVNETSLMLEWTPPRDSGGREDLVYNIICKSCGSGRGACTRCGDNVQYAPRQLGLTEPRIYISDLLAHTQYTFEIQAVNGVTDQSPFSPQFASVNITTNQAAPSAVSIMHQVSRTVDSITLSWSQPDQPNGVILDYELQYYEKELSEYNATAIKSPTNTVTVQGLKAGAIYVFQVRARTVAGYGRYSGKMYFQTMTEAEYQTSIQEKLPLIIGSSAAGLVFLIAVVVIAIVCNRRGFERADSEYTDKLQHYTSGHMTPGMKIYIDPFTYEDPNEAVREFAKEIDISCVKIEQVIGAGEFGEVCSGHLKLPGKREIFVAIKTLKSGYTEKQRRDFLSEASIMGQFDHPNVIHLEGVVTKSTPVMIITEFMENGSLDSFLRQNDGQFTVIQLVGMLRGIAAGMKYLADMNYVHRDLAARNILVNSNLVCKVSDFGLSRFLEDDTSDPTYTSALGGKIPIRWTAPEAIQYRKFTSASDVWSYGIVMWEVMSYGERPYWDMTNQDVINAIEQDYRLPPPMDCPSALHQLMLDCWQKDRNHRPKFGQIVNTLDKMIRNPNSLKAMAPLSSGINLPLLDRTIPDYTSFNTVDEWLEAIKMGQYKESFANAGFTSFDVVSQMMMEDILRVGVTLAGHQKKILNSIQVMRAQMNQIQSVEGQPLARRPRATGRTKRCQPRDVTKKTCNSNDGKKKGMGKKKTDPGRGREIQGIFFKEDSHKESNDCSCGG
row,Sequence,phosphorylation enrichment
1,CTTIHYNSMCN [TP53_Y234_Y236S],0.645
2,FEHVGYTTLNR [CHN1_Y148_YF],0.395
3,VGTKRYRAPEV [ACVRL1_Y375_M376R],0.338
4,PVQAASQKVVA [HBB_Y131_Y131S],0.414
5,LEITWYPFDME [RIPOR2_Y316_V320M],0.792
6,SPFEVYVDKSQ [FLNA_Y373],0.515
7,FLRTGYSIPFG [TGM1_Y370_V372I_YF],0.471
8,NTGLDYIKFTW [HRH1_Y386],0.742
9,GKFFQYDTWNQ [IGF2_Y116_K120N],0.7
10,FGISGYLVDSV [MAP2K3_Y214],0.501
11,YEDTLYTVLHR [UNC13D_Y61_A59T],9.31
12,GRRNTCFASIA [ACADM_Y352_Y352C_YF],0.348
13,HLLRIYYDITD [MMP27_Y307_W304L],1.99
14,HLAQRYLIWEC [SCN5A_Y694_R689H],0.944
15,EYHRLYEEYTR [PIK3R1_Y467_D464H],5.18
16,REGKIYEFNQV [ZNF665_Y162_H157R_YF],0.795
17,AQADIYKADFQ [IKBKG_Y308],0.535
18,QRPGLYDRPGA [HNRNPH2_Y210_P209L],0.512
19,DVMDLYKTLRG [NR3C1_Y30_F29L],0.535
20,CVGGFYGGCNE [CTSC_Y352_Y347C],0.625
21,RGDSAYHSQRH [ERBB3_Y1132],0.469
22,KSIQLYDTPFE [SHB_Y297_G293S_YF],18
23,PPTYRYERGSR [INPPL1_Y663],0.442
24,INASGYRIGPA [ACSM1_Y477],0.374
25,SVTCTDSPALN [TP53_Y126_Y126D],0.564
26,SNVEQYQAMVT [TPR_Y965],0.444
27,ETLLFYGFRRS [POR_Y564_C566Y_YF],0.404
28,QLAPQYTYTQG [FLNA_Y1761_A1764T],0.413
29,HHIDFYKETTN [FGFR1_Y654_K656E_YF],2.44
